In a protein production outcome set (Wang et al. 2014):

Test: label from the status in PepcDB records

| Sequence | protein production |
| --- | --- |
| MKFYKKLIECIILLLFFVVFTLFIKYYFKPFLSIVILTILCSPIYNLLSKHKVFGDRINAVLSIIVINVMIFLAIFLIGNFIAQKLNIYLQHYHNVLDINKLPIIGESNVNILLNKINVFVDKLFNADFFKKSAVYTTDGILTYFVSIMSVYFILVDKYDIVNLAEKLFTKNKVHILMKKFSDIKSLLRVETFLVLITTIQTIIGFFVLGIEDCFMLGIICGILDILPYVGTIIIFIPLIIYKMYEKNYVTIFGLIALYIFLQVSRQIMETNFMSSKLKIHPLIILISVYIGIKAFGIIGLFIAPIYVITAKEIILSS | failed |
| MKGFAMLGINKLGWIEKERPVAGSYDAIVRPLAVSPCTSDIHTVFEGALGDRKNMILGHEAVGEVVEVGSEVKDFKPGDRVIVPCTTPDWRSLEVQAGFQQHSNGMLAGWKFSNFKDGVFGEYFHVNDADMNLAILPKDMPLENAVMITDMMTSGFHGAELADIQMGSSVVVIGIGAVGLMGIAGAKLRGAGRIIGVGSRPICVEAAKFYGATDILNYKNGHIVDQVMKLTNGEGVDRVIMAGGGSETLSQAVSMVKPGGIISNINYHGSGDALLIPRVEWGCGMAHKTIKGGLCPGGRLMKGFAMLGINKLGWIEKERPVAGSYDAIVRPLAVSPCTSDIHTVFEGALGDRKNMILGHEAVGEVVEVGSEVKDFKPGDRVIVPCTTPDWRSLEVQAGFQQHSNGMLAGWKFSNFKDGVFGEYFHVNDADMNLAILPKDMPLENAVMITDMMTSGFHGAELADIQMGSSVVVIGIGAVGLMGIAGAKLRGAGRIIGVGSRPICVEAAKFYGATDILNYKNGHIVDQVMKLTNGEGVDRVIMAGGGSETLSQAVSMVKPGGIISNINYHGSGDALLIPRVEWGCGMAHKTIKGGLCPGGRLRAEMLRDMVVYNRVDLSKLVTHVYHGFDHIEEALLLMKDKPKDLIKAVVIL | not failed |
| MKGIKSACALIVLTFFSALTQAATAVEMAKQAYFLIERDPLDLDQRNEASYLIQRANVLDGDEPWVAVAQSRLTLVSGYKVGQRHDRRAYEESAVSTARQQAERAVRNGPNLAMAHVQLAMVLIIQGELRTAWDHLNTADSLDEQSFYPWYLRTVIAIHHKDEKFAAEGFKEIESRASQKYQKRLLLHERMRLAKATKNLEERDRLHRKMIELDPDYAYAWGNYGSFLLGQKRYREAVHNLERAVELKPYGLAVSQLAEARRKLNQAF | failed |
| MKGKLGLFAAMLVLAGCATASEQLRVYTEQYPPYNMTTNGQPFAHSESEITGLCTDVLKAVLENAKVDYSIKLRDLSYGMNRAQRHEDHGIYCVSKTDEREPFFEWVGPLSSIKWTLFAKPGSSIKLDDLEDARDYRIGGYKGDVMTGYLEDKGFDVSAITNNGLNAKRLEQDQIDLWVADGLAGPYLAADASDVTGLEAVLVFRETPMYLAINKDSDPDLIKALNTAYQAMQESGEIDTISRSYGL | failed |
| MKGKLQHIHPLGMSIILGTLFARFATSMSIPFLAIYLTTVKGVSAGMTGAIIGTSALVGVFASFIGGNLSDRFGRKTIMLWSMIVWIFVFIGFSLADHVLSFFLLNALNGLCRSFFEPTSRALLSDLTKPEYRLLVYNLRYGAINVGVAIGPIVGLQIGSAKSTIPFLVAAGVYILYTAILAFQFKKYPMEKKKVSTEKPVTMLNAMRILRKDIVFLVALVGIILSNCGFSHLTTTVSQYFANAHIFEDGVKLFSYMLALNAIVVVIIQYPVIQMCKKYTPLTSIMVGTLFVSGGLFGFGIVESMLGAAVCTIIFTIGEVLMFSMTDVFIDDIAVAHLKGTYFGAMGFSGIGAVIGPWFGGVLLDYYGYQNGFAVFSALAIFSTVAFPVLLVTKGLSKKRYDRNSNIEMHAK | failed |
| MKGSLIIVGFFVLGALCGVYHLIPYDFTQSKLSFYALCALMFSVGVSVGNDPQTLRNFRSLNPRLIFLPVMTILGTLAGCAVVSLFLS | failed |
| MKGSRKGESRAKESKPREPGTRRCAKCGRLDFILKKKMGIKSGFTFWNLVFLLTLSCVKGFIYTCGGTLKGLNGTIESPGFPYGYPNGANCTWVIIAEERNRIQIVFQSFALEEEYDYLSLYDGHPHPTNFRTRLTGFHLPPPVTSTKSVFSLRLTSDFAVSAHGFKVYYEELQSSSCGNPGVPPKGVLYGTRFDVGDKIRYSCVTGYILDGHPQLTCIANSVNTASWDFPVPICRAEDACGGTMRGSSGIISSPGFPNEYHNNADCTWTIVAEPGDTISLIFTDFQMEEKYDYLEIEGSEPPTIWLSGMNIPPPIISNKNWLRLHFVTDSNHRYRGFSAPYQVKKAIDFKSRGFKLFPGKDNSNKFSLLNEGGIKTASNLCPDPGEPENGKRFGSDFR | failed |
| MKGTVGELGEFGLIRELTSRLTTTPAVRVGPGDDAAVVAAPDRRVVASTDILVEGRHFRRDWSTAYDVGRKAAAQNLADIAAMGAVPTALLLGLVVPAELPVTWPTELMDGLRDECQVAGASVVGGDVVRGDTITVSITALGDLRNQEPVTRAGAQPGDLVAVTGWLGWSAAGFAVLSRGFRSPRAFVEAHRRPEPPYHAGPAAAGLGATAMCDVSDGLIADLGHIAEASKVRIDVRSGQIDIPSQMNDIGQAVGVDPMQWVLTGGEDHAIVATFPPDVKLPARWKVIGEVLNPSALPQVTVDGAPWTSKGGWDHFGGDVES | failed |
| MKHIHIIGIGGTFMGGIAAIAKEAGFKVSGCDAKMYPPMSTQLEALGIGVHEGFDAAQLEEFQADIYVIGNVARRGMDVVEAILNRGLPYISGPQWLAENVLHHHWVLGVAGTHGKTTTASMLAWVLEYAGLAPGFLIGGVPENFGVSARLPQTPRQDPNSKSPFFVIEADEYDTAFFDKRSKFVHYRPRTAVLNNLEFDHADIFADLGAIQTQFHHLVRTVPSEGLIVCNGQQQSLQDTLDKGCWTPVEKFGTGHGWQIGEVNADGSFDVLLDGKKAGHVAWDLMGGHNRMNALAVIAAARHAGVDVQTACEALGAFKNVKRRMEIKGTANGITVYDDFAHHPTAIETTIQGLRQRVGGARILAVLEPRSNTMKLGTMKSALPASLKEADQVFCYAGGADWDVAEALAPLGCRLRVGKDFDTFVAEIVKNARTGDHILVMSNGGFGGIHTKLLDALR | not failed |
| MKHLPKHLRPRWRYLAVGIETWPNASFGRRAFQREVWYAAQNLLGDTGSAETDMTVLQFHDYDGTAEAIVRTRRGQTNPARAALTCLDSVDDDDVRVRVRGISGTVRACEEKYIRGPPEFTEQRHVVFENADRSATVRPPRYDVETASDGAFVGATALDFR | failed |
| MKHYTVAINGLPQEFEGFTILHLTDLHAKKYGDQQDKLIRLINRQNFDMVAMTGDFIDKDNPDLEPTLELIQGLAAKPIFFVPGNHEWRYDFSIKSSLEEHGVKILDNKNAELARGDARLWIAGVDDPYLHRDKLEEALHGIADAQPKLLLAHAPNIFKPAAESGVELVLVGHTHGGQVRLPLIGAIVAPGQGLFPQYDYGHFTAGSTNMIVNGGLGESTLPLRFCSRPEIVLVKLVSAPLEHHHHHH | failed |
| MKIAYLGPSGSFTHNVALHAFPAADLLPFENITEVIKAYESKQVCFAIVPVENSIEGSVHETFDYLFHQAKIEAVAEIILPIKQQLMSTSADKTIETIFSHPQAIAQGKQYIRSHYPDVKIEMTASTAYAARFVAEHPEENYAAIAPYAAADEYHLSIIAKDIQEIDENYTRFWVLGDETP | failed |
| MKICAVVVTYNRKDLLVECLEALRRQTGPLDAIYIIDNASTDGTPHLLMEGGYIDDPDGSVKNLPDHHGRSLKIVYVRLNENTGGAGGFYKGVRRAFHDEYDWIWLMDDDVEPEEYTLEKLLKASERIPEDVSAVAPVRFFQGSLFISETKTFNFRNPLKHFTYDFITDDDLKEEYFKISAISFEGLLIKREAIERIGFPDKSLFIIADDTDYAIRLRDYGPIYMVSGARLIKKVAAEPDFNWKGFYHLRNVIYLDRKYGENILVRYLRPLRTLIIVTYQCLKYKPSGFKYLLKAFWEGYTLKRGKTVKPGEFLEHHHHHH | not failed |
| MKIEAASEQHLSVYRRYFRACRDEDFEYYRGLPDDADGWLLKVVQHADGEALPEGWVPCQTWFLLSDDGEIAGAARLREGETAVIQDVIGHIGFEVLPQWRGHGYGRVLLQYVQAMAPAPACGNWVLVCDADSPASVRTIEACGGQRLEDMPQPDGRV | failed |
| MKIEERKQYVKIEVQEGDTLWELADRIKGGKTADKHKFIEWVADKNNLPTSVIKPGDVLILPVAKQHSDQYQLAVVELEHHHHHH | not failed |
| MKIEEVRFGLVKIDGKEFDHDIVIYPSGRIERRMKEISKKKHGTSHKLDPEELEKYLVEDFDVLLVGTGIYGMLSLLPESKKLVEDKEVIEKPTKEALKLLEELWGKKRILAIIHVTC | not failed |
